± gives the standard deviation of the averaged measurements.
Each sequence was assayed on Saccharomyces cerevisiae (assay: protein stability index of tFT-peptide fusion (C-terminal peptide) (PSI (0-1 scale)); higher = more stable (slower turnover)). Settings: genetic background: wild type; temperature: 30 C.
Description: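 Multiplexed protein stability (MPS) profiling in S. cerevisiae. Random 12-aa peptides (tFT-X12 library) are fused to the C-terminus of a sfGFP-mCherry tandem fluorescent timer, after mCherry and a GGGS linker. Cells are FACS-sorted into 8 mCherry/sfGFP bins and deep-sequenced. The protein stability index (PSI) is the read-weighted bin average, scaled from 0 (unstable) to 1 (stable). Only peptides with >10 reads are reported; cells were grown at 30 °C in SC-His with glucose.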
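Also: PSI is a weighted mean of sequencing reads over stability bins, variants kept only with over 10 reads, mCherry proximal and sfGFP distal, peptide attached via GGGS linker.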

Question: Which protein stability index does the source give for PRPPPLPPPLPL here?
Answer: The protein stability index was 0.5773 ± 0.0032.

Question: Which protein stability index does the source give for GGGGGWGGAGGV here?
Answer: The protein stability index was 0.737 ± 0.048.

Question: With PHPPRPSTPPPT as the sequence, how does the protein stability index read?
Answer: The protein stability index was 0.637 ± 0.059.

Question: For VFITSLWTPLLL, which protein stability index is on record?
Answer: Its protein stability index is 0.617 ± 0.019.

Question: ETVRPYSPMRPG was tested. Which protein stability index did it give?
Answer: The protein stability index was 0.674 ± 0.016.

Question: VTKESPSLCLCV was tested. Which protein stability index did it give?
Answer: The protein stability index was 0.588 ± 0.041.

Question: Which protein stability index does the source give for DVRNVCNISDEV here?
Answer: Its protein stability index is 0.654 ± 0.022.

Question: For GRASGGGLGRGR, which protein stability index is on record?
Answer: The protein stability index was 0.593 ± 0.0086.

Question: How did the protein stability index turn out when QTQSNTRIERKK was run?
Answer: Its protein stability index is 0.668 ± 0.057.

Question: For SALNKPLTTESG, which protein stability index is on record?
Answer: The protein stability index was 0.6586 ± 0.0021.

Question: Which protein stability index does the source give for APAPSPPPPPPD here?
Answer: Its protein stability index is 0.562 ± 0.037.

Question: For ICPWLLPPSCRS, which protein stability index is on record?
Answer: The protein stability index was 0.738 ± 0.015.

Question: For QLGALIAHSTTF, which protein stability index is on record?
Answer: Its protein stability index is 0.665 ± 0.13.

Question: How did the protein stability index turn out when ASVVEVSSLSLL was run?
Answer: The protein stability index was 0.629 ± 0.052.

Question: How did the protein stability index turn out when PFPPRPPSDRIR was run?
Answer: The protein stability index was 0.659 ± 0.088.

Question: For PPTPPPPLPSSF, which protein stability index is on record?
Answer: Its protein stability index is 0.77 ± 0.075.

Question: With FSTTSFPPSFFP as the sequence, how does the protein stability index read?
Answer: Its protein stability index is 0.711 ± 0.042.

Question: For NRRERQQREVYN, which protein stability index is on record?
Answer: The protein stability index was 0.741 ± 0.21.

Question: With LSQPRDGMRWCA as the sequence, how does the protein stability index read?
Answer: The protein stability index was 0.6191 ± 0.0035.

Question: For HSPTPLLPPSPS, which protein stability index is on record?
Answer: Its protein stability index is 0.727 ± 0.045.

Question: How did the protein stability index turn out when PSRDGNLYAQCR was run?
Answer: Its protein stability index is 0.618 ± 0.048.

Question: For GTEKESRRKREQ, which protein stability index is on record?
Answer: The protein stability index was 0.698 ± 0.042.

Question: How did the protein stability index turn out when CLVWGGCYWDVG was run?
Answer: The protein stability index was 0.6019 ± 0.0015.

Question: How did the protein stability index turn out when GGGPGGWGGRGR was run?
Answer: The protein stability index was 0.6449 ± 0.0052.

Question: Which protein stability index does the source give for SISIGVRHSRPP here?
Answer: Its protein stability index is 0.609 ± 0.033.

Question: CGCFLSELATFC was tested. Which protein stability index did it give?
Answer: The protein stability index was 0.652 ± 0.059.

Question: How did the protein stability index turn out when GALFRRACSLLF was run?
Answer: Its protein stability index is 0.697 ± 0.039.

Question: For DNHGWKVEGRLL, which protein stability index is on record?
Answer: Its protein stability index is 0.686 ± 0.015.

Question: For GSGRLGGDRVVG, which protein stability index is on record?
Answer: The protein stability index was 0.6578 ± 0.0029.

Question: For PTHGPSPPNVAT, which protein stability index is on record?
Answer: Its protein stability index is 0.6595 ± 0.00038.

Question: PCRANRRLVTSP was tested. Which protein stability index did it give?
Answer: Its protein stability index is 0.628 ± 0.056.

Question: PPRLVPPLPPPL was tested. Which protein stability index did it give?
Answer: Its protein stability index is 0.635 ± 0.048.

Question: With GSCFLLSLVSFI as the sequence, how does the protein stability index read?
Answer: Its protein stability index is 0.56199 ± 0.00047.

Question: How did the protein stability index turn out when EVGTSGTWPGSV was run?
Answer: The protein stability index was 0.714 ± 0.013.

Question: ASSPSPPTPPPP was tested. Which protein stability index did it give?
Answer: Its protein stability index is 0.647 ± 0.056.

Question: SGIEHVLIVYDT was tested. Which protein stability index did it give?
Answer: The protein stability index was 0.679 ± 0.11.

Question: For ARGFSAGAIGVG, which protein stability index is on record?
Answer: Its protein stability index is 0.646 ± 0.1.

Question: Which protein stability index does the source give for CWGGWGLWLLEV here?
Answer: The protein stability index was 0.516 ± 0.023.

Question: With PSLPLSPLSDSR as the sequence, how does the protein stability index read?
Answer: The protein stability index was 0.717 ± 0.032.

Question: Which protein stability index does the source give for VVVARGGEEGWW here?
Answer: The protein stability index was 0.656 ± 0.12.

Question: How did the protein stability index turn out when SLLLPLFLPPSL was run?
Answer: Its protein stability index is 0.723 ± 0.0086.

Question: LSSPPHVRSSPF was tested. Which protein stability index did it give?
Answer: The protein stability index was 0.695 ± 0.029.

Question: With SSLTPRVSFIIF as the sequence, how does the protein stability index read?
Answer: The protein stability index was 0.64 ± 0.12.

Question: With KLTVPTKTIVHT as the sequence, how does the protein stability index read?
Answer: The protein stability index was 0.651 ± 0.03.

Question: With RPPLLSPSPPPP as the sequence, how does the protein stability index read?
Answer: Its protein stability index is 0.649 ± 0.014.

Question: PFPRGCCRLLSP was tested. Which protein stability index did it give?
Answer: The protein stability index was 0.707 ± 0.012.

Question: FNIRDKVKRGAL was tested. Which protein stability index did it give?
Answer: Its protein stability index is 0.666 ± 0.008.

Question: For GGGVGGGRAWWR, which protein stability index is on record?
Answer: The protein stability index was 0.699 ± 0.037.

Question: Which protein stability index does the source give for SRPRPPHTLLRP here?
Answer: Its protein stability index is 0.688 ± 0.065.

Question: Which protein stability index does the source give for DLVLVSSQMPFA here?
Answer: The protein stability index was 0.683 ± 0.039.

Question: DSAWSWTLLFVG was tested. Which protein stability index did it give?
Answer: The protein stability index was 0.63 ± 0.026.

Question: How did the protein stability index turn out when RPAESPPAFYNR was run?
Answer: The protein stability index was 0.774 ± 0.062.

Question: Which protein stability index does the source give for AMFFAFSRSLMS here?
Answer: The protein stability index was 0.639 ± 0.026.

Question: With SDVAWVEAPPRS as the sequence, how does the protein stability index read?
Answer: The protein stability index was 0.678 ± 0.097.

Question: How did the protein stability index turn out when GGGLVGVEGGWG was run?
Answer: The protein stability index was 0.6732 ± 0.0057.

Question: How did the protein stability index turn out when EDRYIGITRYKD was run?
Answer: Its protein stability index is 0.682 ± 0.11.

Question: Which protein stability index does the source give for WRRLVGGVAWLW here?
Answer: Its protein stability index is 0.726 ± 0.08.

Question: With HSSFCIVIRVSR as the sequence, how does the protein stability index read?
Answer: Its protein stability index is 0.5125 ± 0.001.

Question: GSNTTKRESQPH was tested. Which protein stability index did it give?
Answer: Its protein stability index is 0.708 ± 0.067.

Question: For KGGKVGRAGEKG, which protein stability index is on record?
Answer: Its protein stability index is 0.644 ± 0.098.

Question: For DGGVPGVMVVGE, which protein stability index is on record?
Answer: Its protein stability index is 0.644 ± 0.024.

Question: VSVRGREGLDWK was tested. Which protein stability index did it give?
Answer: Its protein stability index is 0.698 ± 0.019.

Question: For CTGVFTGRCEGG, which protein stability index is on record?
Answer: Its protein stability index is 0.653 ± 0.028.

Question: With ALPLLPPHSLPP as the sequence, how does the protein stability index read?
Answer: Its protein stability index is 0.617 ± 0.011.

Question: ARFFPLPIPPRS was tested. Which protein stability index did it give?
Answer: Its protein stability index is 0.758 ± 0.078.

Question: For LGCKGQLFWYIW, which protein stability index is on record?
Answer: The protein stability index was 0.6327 ± 0.003.

Question: How did the protein stability index turn out when LFPSSGTRLTPS was run?
Answer: Its protein stability index is 0.667 ± 0.027.

Question: With SLLPAPTPCPPP as the sequence, how does the protein stability index read?
Answer: The protein stability index was 0.701 ± 0.033.

Question: KRLCTYRMIGSL was tested. Which protein stability index did it give?
Answer: The protein stability index was 0.521 ± 0.0089.

Question: How did the protein stability index turn out when TQEKKGKIRGGI was run?
Answer: Its protein stability index is 0.685 ± 0.0085.

Question: How did the protein stability index turn out when PPSLFRFPPPPR was run?
Answer: Its protein stability index is 0.709 ± 0.074.

Question: Which protein stability index does the source give for GRGLAEGRRITR here?
Answer: The protein stability index was 0.638 ± 0.062.

Question: Which protein stability index does the source give for FQGKRTKQEGVK here?
Answer: The protein stability index was 0.692 ± 0.071.

Question: With YTLPVHPAFVFP as the sequence, how does the protein stability index read?
Answer: The protein stability index was 0.683 ± 0.071.

Question: How did the protein stability index turn out when CCRICCCLLGTH was run?
Answer: The protein stability index was 0.658 ± 0.032.

Question: Which protein stability index does the source give for EAGESKNVDSLL here?
Answer: The protein stability index was 0.638 ± 0.0081.

Question: With APDRPTPSLSSP as the sequence, how does the protein stability index read?
Answer: Its protein stability index is 0.7057 ± 0.0053.

Question: With PPNLLPRPPPRG as the sequence, how does the protein stability index read?
Answer: Its protein stability index is 0.559 ± 0.047.

Question: Which protein stability index does the source give for KTEEERKKAEKE here?
Answer: The protein stability index was 0.653 ± 0.076.

Question: Which protein stability index does the source give for PGPSPSPPLPRF here?
Answer: The protein stability index was 0.748 ± 0.014.

Question: For GGRIITIWNRKM, which protein stability index is on record?
Answer: The protein stability index was 0.578 ± 0.069.

Question: GGETGGRWHKKQ was tested. Which protein stability index did it give?
Answer: Its protein stability index is 0.672 ± 0.069.

Question: With RETSGEVESDVT as the sequence, how does the protein stability index read?
Answer: The protein stability index was 0.678 ± 0.014.

Question: How did the protein stability index turn out when ISEIRHSGFTRL was run?
Answer: Its protein stability index is 0.741 ± 0.084.

Question: PNSSLLNLPRPP was tested. Which protein stability index did it give?
Answer: The protein stability index was 0.744 ± 0.041.

Question: Which protein stability index does the source give for GDVSYRWLRACT here?
Answer: The protein stability index was 0.6576 ± 0.00085.

Question: How did the protein stability index turn out when GYRGMERGEGGG was run?
Answer: Its protein stability index is 0.723 ± 0.068.

Question: With LSDIDLLGLPIL as the sequence, how does the protein stability index read?
Answer: The protein stability index was 0.66 ± 0.085.

Question: SYPRATPPWMAG was tested. Which protein stability index did it give?
Answer: The protein stability index was 0.727 ± 0.092.

Question: With RQLLAVAELLTF as the sequence, how does the protein stability index read?
Answer: Its protein stability index is 0.677 ± 0.086.

Question: Which protein stability index does the source give for GVLGPSFLSVAV here?
Answer: Its protein stability index is 0.584 ± 0.0082.

Question: How did the protein stability index turn out when GGGGGGGEWVGG was run?
Answer: Its protein stability index is 0.656 ± 0.05.

Question: For PTRQKRPPYRIK, which protein stability index is on record?
Answer: The protein stability index was 0.711 ± 0.031.

Question: With VPLRLSTVSFGP as the sequence, how does the protein stability index read?
Answer: Its protein stability index is 0.746 ± 0.12.

Question: For PPPSPPPLPDPH, which protein stability index is on record?
Answer: The protein stability index was 0.697 ± 0.079.

Question: Which protein stability index does the source give for AYRISCAGHIMA here?
Answer: Its protein stability index is 0.684 ± 0.053.

Question: For GGVVSVYCEVSR, which protein stability index is on record?
Answer: The protein stability index was 0.625 ± 0.016.

Question: PPPLVPPPPSSL was tested. Which protein stability index did it give?
Answer: Its protein stability index is 0.731 ± 0.011.

From the supplement of paper PMC10724198
